From patent US20230340071A1 (published 2023)
Substitutions are numbered along the chain they refer to. Names and notes keep the numbering of the source.

B1: Protein 6 (P6) (designed binder)
chain: PKKKIQLFAEHALYDAEMILKIVKTNSPPAEEELEDYAFNFELILEEIARLFESGDQKDEAEKAKRMKEWMKRIKTTASEDEQEEMANKIRKILEEWIRS
notes: P5 with 'Y8F' (printed; P5 has H at 8) and K33E; N-terminal 6xHis tag and thrombin site in the expression vector
B2: Protein 1 (P1) (designed binder)
chain: B1 chain with F8H, L13R, K21N, E33K, K89A, R91I, K92T, E95T, E96S
notes: N-terminal 6xHis tag and thrombin site in the expression vector
B3: Protein 5 (P5) (designed binder)
chain: B1 chain with F8H, E33K
notes: as for B2
B4: Neo-2/15 (designed binder)
chain: B1 chain with F8H, E17L, K21N, E33K, K89A, R91I, K92T, E95Q, E96S, R99F
notes: Proteins were expressed in E. coli with an N-terminal 6xHis tag and thrombin site; also called Neoleukin-2/15
B5: Protein 3 (P3) (designed binder)
chain: B1 chain with F8Y, L13R, K21N, K89A, R91I, K92T, E95T, E96S
notes: P1 with H8Y and K33E; N-terminal 6xHis tag and thrombin site in the expression vector
B6: Protein 2 (P2) (designed binder)
chain: B1 chain with F8H, E33K, K89R
notes: as for B2

How the values were obtained:
[1] = target: T1, Biotinylated hIL2RB (UniProt P14784 27-240, biotinylated (site not stated)); assay: BLI
T1 chain: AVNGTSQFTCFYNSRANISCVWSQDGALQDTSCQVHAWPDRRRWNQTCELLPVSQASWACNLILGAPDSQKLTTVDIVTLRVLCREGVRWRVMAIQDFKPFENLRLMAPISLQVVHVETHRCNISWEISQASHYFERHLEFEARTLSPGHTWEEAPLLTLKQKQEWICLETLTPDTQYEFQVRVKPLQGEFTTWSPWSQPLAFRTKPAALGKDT

[2] = target: T2, Biotinylated hIL2RG (human, UniProt P31785 23-262, limits assumed, biotinylated (site not stated)); assay: BLI (Octet RED96), biotinylated hIL2RG on streptavidin sensors, 200 nM protein + 200 nM hIL2RB
T2 construct: also called human common gamma receptor (hIL2RG); hIL-2Rγc
T2 sequence: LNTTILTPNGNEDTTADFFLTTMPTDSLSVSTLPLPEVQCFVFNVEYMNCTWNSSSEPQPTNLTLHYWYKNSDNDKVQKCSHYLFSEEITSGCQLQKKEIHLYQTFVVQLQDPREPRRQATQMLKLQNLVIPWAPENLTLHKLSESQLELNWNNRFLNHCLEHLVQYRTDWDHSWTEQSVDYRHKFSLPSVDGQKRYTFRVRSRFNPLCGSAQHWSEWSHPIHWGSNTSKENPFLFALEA
Method: Biotinylated hIL2RG molecules were immobilized to Streptavidin sensors (SA, ForteBio) at 2 μg/mL in binding buffer (10 mM HEPES, pH 7.4, 150 mM NaCl, 3 mM EDTA, 0.05% surfactant P20, 0.5% non-fat dry milk). After baseline measurement in the binding buffer alone, the binding kinetics were monitored by dipping the biosensors in wells containing 200 nM of protein and 200 nM of hIL2RB for 300 sec. Data were collected in an Octet RED96 (ForteBio) and processed using the instrument's integrated software.

[3] = target: T3, human IL-2 receptor (IL-2Rβγc) on cells (human, UniProt P14784 27-551; P31785 23-369); assay: cell-based or functional assay
T3 sequence 1: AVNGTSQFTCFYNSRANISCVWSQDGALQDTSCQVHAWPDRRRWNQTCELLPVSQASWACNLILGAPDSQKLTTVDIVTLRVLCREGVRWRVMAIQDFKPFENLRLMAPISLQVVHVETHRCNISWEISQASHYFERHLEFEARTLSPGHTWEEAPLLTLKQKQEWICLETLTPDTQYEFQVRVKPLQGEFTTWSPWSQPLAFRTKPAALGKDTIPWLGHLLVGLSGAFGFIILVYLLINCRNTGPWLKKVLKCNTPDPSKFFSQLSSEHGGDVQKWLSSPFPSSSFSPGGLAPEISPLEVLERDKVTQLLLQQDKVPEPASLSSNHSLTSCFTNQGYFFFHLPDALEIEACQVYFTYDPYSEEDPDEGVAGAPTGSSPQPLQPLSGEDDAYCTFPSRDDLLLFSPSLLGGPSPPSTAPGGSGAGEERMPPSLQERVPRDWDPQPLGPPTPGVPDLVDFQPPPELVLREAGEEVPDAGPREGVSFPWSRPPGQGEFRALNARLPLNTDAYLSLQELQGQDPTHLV
T3 sequence 2: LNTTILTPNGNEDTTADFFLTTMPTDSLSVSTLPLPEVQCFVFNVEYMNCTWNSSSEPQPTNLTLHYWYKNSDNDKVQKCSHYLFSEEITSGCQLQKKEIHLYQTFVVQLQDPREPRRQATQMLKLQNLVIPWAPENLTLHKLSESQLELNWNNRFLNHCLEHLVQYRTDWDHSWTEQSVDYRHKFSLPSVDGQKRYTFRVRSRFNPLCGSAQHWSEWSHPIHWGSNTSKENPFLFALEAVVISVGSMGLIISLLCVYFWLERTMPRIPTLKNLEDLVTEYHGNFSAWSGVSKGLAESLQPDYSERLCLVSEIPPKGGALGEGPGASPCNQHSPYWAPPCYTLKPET

[4] = target: T4, hIL-2RBG (biotinylated hIL2RG on the sensor with hIL2RB in solution) (UniProt P14784 27-240; P31785 23-262, biotinylated (site not stated)); assay: BLI competition, inhibition of hIL-2 binding
T4 chain 1: T1 chain
T4 chain 2: T2 sequence

[5] = target: T5, hIL2RB-fc chimera (human, UniProt P14784 27-240); assay: BLI (Octet RED96e), hIL2RB-fc (AcroBiosystems) on anti-human IgG Fc sensors
T5 construct: also called hIL2 receptor beta; hIL-2Rβ; not shown: Fc part of the bought chimera (captured on anti-human IgG Fc biosensors)
T5 sequence: T1 chain
Method: (§1) For this purpose, sensors were soaked in samples containing 20 nM of hIL2RB-fc chimera (AcroBiosystems) for 300 sec. […] Finally, sensors were removed from the protein samples and dipped in buffer solutions to promote and measure dissociation (1500 sec). The buffer used to prepare all the samples and soak the sensors was HBS-EP+from GE Healthcare, which contains 10 mM HEPES, 150 mM NaCl, 3 mM EDTA and 0.05% v/v surfactant P20, pH 7.4. Data were acquired at 30° C. using an Octet RED96e system (ForteBio) and processed using the instrument's integrated software. Kinetics were fitted to a 1:1 binding model after subtracting a buffer signal baseline and the Kd values were calculated.

[6] = target: T3, human IL-2 receptor (IL-2Rβγc) on cells; assay: cell-based or functional assay; remark: listed apart in the source
[7] = target: T6, hIL2RG-fc chimera (human, UniProt P31785 23-262); assay: BLI (Octet RED96e), hIL2RG-fc (AcroBiosystems) on anti-human IgG Fc sensors
T6 construct: also called hIL2G; hIL2 receptor gamma; not shown: Fc part of the bought chimera (captured on anti-human IgG Fc biosensors)
T6 sequence: T2 sequence
Method: as §1, with “hIL2RG-fc” for “hIL2RB-fc”, “HBS-EP+ from” for “HBS-EP+from”

[8] = target: T6, hIL2RG-fc chimera; assay: BLI (Octet RED96e), hIL2RG-fc (Symansis) on anti-human IgG Fc sensors, protein + 200 nM hIL2RB-fc
Method: (§2) All samples were prepared using HBS-EP+ buffer from GE Healthcare, which contains 10 mM HEPES, 150 mM NaCl, 3 mM EDTA and 0.05% v/v surfactant P20, pH 7.4. Data were acquired at 30° C. using an Octet RED96e system (ForteBio) and processed using the instrument's integrated software.

[9] = target: T6, hIL2RG-fc chimera; assay: BLI (Octet RED96e), hIL2RG-fc on anti-human IgG Fc sensors, 200 nM P3 + 200 nM hIL2RB-fc
Method: as §2

[10] = target: T7, mouse IL-2 beta receptor (mouse, UniProt P16297 27-240); assay: BLI competition: mIL2RG on sensor, dilutions of P3 + 20 nM Neo-2/15; competitor Neo-2/15; read-out binding to mIL2RBG
T7 construct: also called mIL2RB; beta part of mIL2RBG
T7 sequence (looked up): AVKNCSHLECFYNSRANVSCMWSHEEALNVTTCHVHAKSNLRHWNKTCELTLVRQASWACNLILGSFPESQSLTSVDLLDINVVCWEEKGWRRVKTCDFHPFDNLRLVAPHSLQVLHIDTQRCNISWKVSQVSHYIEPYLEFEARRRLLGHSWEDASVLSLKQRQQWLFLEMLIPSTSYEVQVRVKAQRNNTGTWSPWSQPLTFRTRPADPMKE
Method: as §2, with “HBS-EP+buffer” for “HBS-EP+ buffer”, “software. IC50 values were estimated from response vs antagonist concentration plots.” for “software.”

[11] = target: T5, hIL2RB-fc chimera; assay: BLI (Octet RED96e), hIL2RB-fc (Symansis) on anti-human IgG Fc sensors
Method: as §1, with “(Symansis)” for “(AcroBiosystems)”

[12] = target: T3, human IL-2 receptor (IL-2Rβγc) on cells; assay: cell-based or functional assay; remark: listed apart in the source
[13] = target: T5, hIL2RB-fc chimera; assay: BLI competition: hIL2RG-fc on sensor, dilutions of P3 + 20 nM Neo-2/15 + 50 nM hIL2RB-fc; competitor Neo-2/15; read-out binding to hIL2RBG
Method: as §2, with “HBS-EP+buffer” for “HBS-EP+ buffer”, “software. IC50 values were estimated from response vs antagonist concentration plots.” for “software.”

[14] = target: T6, hIL2RG-fc chimera; assay: BLI (Octet RED96e), hIL2RG-fc on anti-human IgG Fc sensors
Method: as §1, with “hIL2RG-fc” for “hIL2RB-fc”, “HBS-EP+ from” for “HBS-EP+from”

Row | Binder | Kd [1] [nM] | binding result [2] | Signaling Inhibition IC50 (1 nM hIL-2, pSTAT5, CD8+ T cells) [3] [nM] | IC50 [4] [nM] | Kd [5] [nM] | Induced Signaling EC50 (pSTAT5, YT-1 CTLL-2 cells) [6] [nM] | Kd [7] [nM] | also measured
1 | B1 | < 1 | no binding (tested: 200 nM) | 0.41 | 83 |  |  |  | Signaling Inhibition IC50 (1 nM hIL-2, pSTAT5, CD4+ T cells) [3]: 1.84 nM; Signaling Inhibition IC50 (1 nM hIL-2, pSTAT5, all T cells) [3]: 0.83 nM
2 | B2 |  |  |  |  | 17 | 557 | 1190 | 
3 | B3 | 12 | no binding (tested: 200 nM) | 77.7 | 100 |  |  |  | 
4 | B4 |  |  |  |  |  |  | 277 | Kd [8]: 277 nM
5 | B5 |  |  |  |  |  |  |  | binding result [9]: no binding (tested: 200 nM); IC50 [10]: > 200 nM; Kd [11]: 0.2 nM; Binding Inhibition IC50 (inhibition of hIL-2 pSTAT5 signaling, human pan T cells, 0.1 nM hIL2) [12]: 1.4 nM; Binding Inhibition IC50 (inhibition of hIL-2 pSTAT5 signaling, human pan T cells, 1 nM hIL2) [12]: 11.7 nM; Binding Inhibition IC50 (inhibition of hIL-2 pSTAT5 signaling, human pan T cells, 10 nM hIL2) [12]: 863 nM; IC50 [13]: 12.5 nM
6 | B6 |  |  |  |  | 21 | 426 |  | binding result [14]: no binding (tested: 5000 nM (highest concentration tested))
